This note sets out measurements from patent publication US20230365705A1 (DYNAMICURE BIOTECHNOLOGY, published 2023).

The target in assay [1] is T1, Human CD93 recombinant protein (Sino Biological Inc, Catalog #12589-H08H) (human, UniProt Q9NPY3 22-580).
T1 construct: Biotinylated (EZ-LINK NHS-PEG4 biotin) in the BLI assays; also called hCD93; His-tagged human CD93
T1 sequence (looked up): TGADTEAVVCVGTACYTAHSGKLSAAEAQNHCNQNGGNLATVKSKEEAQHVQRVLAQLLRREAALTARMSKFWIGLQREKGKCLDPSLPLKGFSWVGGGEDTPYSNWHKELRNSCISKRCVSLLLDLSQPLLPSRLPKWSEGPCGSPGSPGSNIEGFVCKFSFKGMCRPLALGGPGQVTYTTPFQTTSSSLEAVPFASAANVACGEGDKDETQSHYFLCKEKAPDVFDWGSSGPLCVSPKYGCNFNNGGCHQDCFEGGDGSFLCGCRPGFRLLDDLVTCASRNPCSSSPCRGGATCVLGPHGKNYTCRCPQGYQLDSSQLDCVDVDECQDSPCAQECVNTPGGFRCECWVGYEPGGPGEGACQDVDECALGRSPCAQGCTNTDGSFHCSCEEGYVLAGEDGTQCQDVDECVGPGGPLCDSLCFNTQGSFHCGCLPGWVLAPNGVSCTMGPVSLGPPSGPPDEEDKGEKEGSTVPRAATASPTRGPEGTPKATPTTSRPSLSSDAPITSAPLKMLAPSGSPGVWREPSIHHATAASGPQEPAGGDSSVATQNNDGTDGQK
Briefly: BLI (Octet QKe), biotinylated human CD93 on streptavidin biosensors. The protocol:
(§1) The binding affinity of anti-CD93 antibodies was determined with bio-layer interferometry using Octet QKe (Fortebio). […] Human CD93 recombinant protein (Sino Biological Inc, Catalog #12589-H08H) was biotinylated using EZ-LINK NHS-PEG4 biotin (Thermo Fisher Scientific). Streptavidin biosensors (Fortebio) were used to load biotinylated CD93 protein (300 seconds in 5 μg/ml). Baseline was stabilized for 60 seconds in 1× kinetics buffer (Fortebio) before anti-CD93 antibodies, at a serial dilution, were allowed to associate for 300 seconds with captured protein. Then the sensors were dissociated in 1× kinetics buffer for 600 seconds. […] (FIG. 42).
A general note: In BLI a coated tip is dipped into the sample, and binding shifts an interference pattern.

The target of assay [2] is T1, Human CD93 recombinant protein (Sino …). Briefly: BLI (Octet QKe), biotinylated human CD93 on streptavidin biosensors; antibody stored 4 weeks at 40 C. How it is done: as §1
For assay [3] the target is unchanged. Description: BLI (Octet QKe), biotinylated CD93 on streptavidin biosensors; table under the hCD93 panels. How it is done:
The binding affinity of anti-CD93 antibodies were determined with bio-layer interferometry using Octet QKe (Fortebio). Human CD93 recombinant protein (Sino Biological Inc, Catalog #12589-H08H) or cynomolgus CD93 protein (made in-house) were biotinylated using EZ-LINK NHS-PEG4 biotin (Thermo Fisher Scientific). Streptavidin biosensors (Fortebio) were used to load biotinylated CD93 protein (300 seconds at 5 μg/ml). The baseline was stabilized for 60 seconds in a 1× kinetics buffer (Fortebio) before serially diluted anti-CD93 antibodies were allowed to associate for 300 seconds with captured protein. The sensors were dissociated in a 1× kinetics buffer for 600 seconds.

For assay [4], the target named is T2, Human CD93 on cells (human CD93 expressing CHO cells; HUVEC, U937 and KG1a cells) (human, UniProt Q9NPY3 22-652).
T2 construct: whole, on cells; also called hCD93 expressing CHO cells; hCD93 CHO cells
T2 sequence (looked up): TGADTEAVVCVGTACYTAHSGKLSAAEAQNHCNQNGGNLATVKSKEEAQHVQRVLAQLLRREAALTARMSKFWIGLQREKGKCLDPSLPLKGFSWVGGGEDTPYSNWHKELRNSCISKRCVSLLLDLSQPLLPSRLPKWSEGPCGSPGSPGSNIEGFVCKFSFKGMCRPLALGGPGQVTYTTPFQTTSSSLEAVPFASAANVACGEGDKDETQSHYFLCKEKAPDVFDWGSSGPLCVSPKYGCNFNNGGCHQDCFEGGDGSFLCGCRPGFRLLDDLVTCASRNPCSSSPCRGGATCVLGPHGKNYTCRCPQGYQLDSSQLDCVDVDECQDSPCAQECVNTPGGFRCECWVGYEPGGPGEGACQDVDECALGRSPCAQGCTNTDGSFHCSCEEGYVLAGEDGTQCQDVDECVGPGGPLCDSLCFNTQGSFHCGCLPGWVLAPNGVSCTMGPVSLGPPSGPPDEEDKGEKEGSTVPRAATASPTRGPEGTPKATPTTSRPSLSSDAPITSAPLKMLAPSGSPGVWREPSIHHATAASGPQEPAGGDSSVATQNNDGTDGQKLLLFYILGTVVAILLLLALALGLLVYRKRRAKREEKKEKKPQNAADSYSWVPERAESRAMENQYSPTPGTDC
Description: flow cytometry, CHO-hCD93 cells, APC-A. In general terms: Flow cytometry measures light scatter and fluorescence of single cells or particles in a stream.

Assay [5] has as its target T1, Human CD93 recombinant protein (Sino …). Briefly: BLI (Octet QKe), biotinylated human CD93 on streptavidin biosensors; antibody stored 4 weeks at 40 C. The protocol:
The binding affinity of anti-CD93 antibodies was determined with bio-layer interferometry using Octet QKe (Fortebio). […] Human CD93 recombinant protein (Sino Biological Inc, Catalog #12589-H08H) was biotinylated using EZ-LINK NHS-PEG4 biotin (Thermo Fisher Scientific). Streptavidin biosensors (Fortebio) were used to load biotinylated CD93 protein (300 seconds in 5 μg/ml). Baseline was stabilized for 60 seconds in 1×kinetics buffer (Fortebio) before anti-CD93 antibodies, at a serial dilution, were allowed to associate for 300 seconds with captured protein. Then the sensors were dissociated in 1× kinetics buffer for 600 seconds. […] (FIG. 41).
This is another data set of the same source.

B1: h16E4 (humanized 16E4, VH4+VL6) (antibody, V domains shown)
VH: QVQLVQSGAEVKKPGASVKVSCKASGYTFTSYWMHWVRQAPGQGLEWMGEIDPSASYTYYNQKFKGRVTMTRDKSSSTVYMELSSLTSEDSAVYYCARSVYYGNKYFDVWGAGTTVTVSS
VL: DIQMTQSPSTLSASVGDRVTITCKASQSVDYAGDSYMNWYQQKPGKAPKLLIYAASNLESGVPSRFSGSGSGTEFTLTISSLQPDDFATYYCQQTNEDPRTFGGGTKLEIK
notes: Detected with anti-human IgG, so a human Fc
As usually defined, the Kd is a measure of binding affinity in units of concentration. One may read the koff as the rate constant with which the complex falls apart. As a reminder, the kon is a measure of how fast the partners come together. As to B1, in assay [1], the Kd was determined as 0.416 nM, the koff is 0.000104 s⁻¹ and the kon worked out at 249000 M⁻¹ s⁻¹. Besides, in assay [2], the dissociation constant Kd was 0.112 nM, the dissociation rate constant (koff) was found to be 3.24e-05 s⁻¹ and the kon was 289000 M⁻¹ s⁻¹.

B2: 16E4 (hybridoma) (antibody, IgG2a, V domains shown)
VH: QVQLQQPGAELVKPGASVKLSCKASGYTFTSYWMHWVKQRPGQGLEWIGEIDPSASYTYYNQKFKGKATLTVDKSSSTAYMQLSSLTSEDSAVYYCARSVYYGNKYFDVWGAGTTVTVSS
VL: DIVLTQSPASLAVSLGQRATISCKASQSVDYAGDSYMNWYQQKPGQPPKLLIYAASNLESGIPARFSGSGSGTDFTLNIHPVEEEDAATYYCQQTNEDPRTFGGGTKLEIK
notes: also called 16E4 mAb; 16E4 mIgG2a
Take B2: in assay [3], the Kd was 0.447 nM, the koff came to 0.000429 s⁻¹ and the kon came out at 960000 M⁻¹ s⁻¹. Moreover, in assay [4], the “M3 gate, % of cells” value stood at 98.7%.

B3: h7F3 (humanized 7F3, VH3+VL3) (antibody, human IgG1, V domains shown)
VH: QVQLVQSGAEVKKPGASVKVSCKASGYTFTDYEMHWVRQAPGQGLEWMGGIDPETGDTAYNQNFKGRVTMTTDTSTSTAYMELRSLTSDDTAVYYCTNYGNLYYYAMDYWGQGTSVTVSS
VL: EIVLTQSPSSLSASVGDRVTITCRASSSVSSSYLHWYQQKPGKAPKLLIYSTSNLAFGVPSRFSGSGSGTSYTFTISSLQPEDIATYYCQQYSGYPLTFGSGTKLEIK
notes: also called humanized 7F3-hIgG1
B3: in assay [5], the Kd was 0.487 nM, the koff was 0.000386 s⁻¹ and the kon is 793000 M⁻¹ s⁻¹.
